{"source": "patent US20240002543A1", "about": "(MARENGO THERAPEUTICS, published 2024)", "binders": {"B1": {"name": "BKM0025 (humanized anti-CD3 antibody molecule) (antibody, V domains shown)", "VH": "QVQLVQSGAEVKKPGASVKVSCKASGYTFTTYWMHWVRQAPGQGLEWMGNFNPNNGDTNYNEKFKTRVTMTVDKSTSTAYMELRSLRSDDMAVYYCARDDYGRYYFDYWGQGTLVTVSS", "VL": "EIVMTQSPATLSLSPGERATLSCKSSQSLLNSRTRKNYLAWYQQKPGLAPRLLIYWAFTRESGIPDRFSGSGSGTDFTLTISRLEPEDFAVYYCKQSFILRTFGGGTKVEIK", "notes": "Captured via anti-human Fc antibody in SPR; constant regions not tied"}, "B2": {"name": "BKM0020 (humanized anti-CD3 antibody molecule) (antibody, V domains shown)", "VH": "B1 VH", "VL": "DIQMTQSPSTLSASVGDRVTITCKSSQSLLNSRTRKNYLAWYQQKPGKAPKLLIYWAFTRESGVPSRFSGSGSGTEFTLTISSLQPDDFATYYCKQSFILRTFGGGTKVEIK", "notes": "Captured via anti-human Fc antibody in SPR, so it carries a human Fc; constant regions not tied"}, "B3": {"name": "BKM0038 (humanized anti-CD3 antibody molecule) (antibody, V domains shown)", "VH": "B1 VH with Q43K, R84S, D89E, M91T", "VL": "B2 VL with T10S, E76D, D87E", "notes": "as for B1"}, "B4": {"name": "BKM0028 (humanized anti-CD3 antibody molecule) (antibody, V domains shown)", "VH": "B1 VH with Q43K, R84S, D89E, M91T", "VL": "B1 VL", "notes": "as for B1"}}, "note": "Substitutions are numbered along the chain they refer to.", "data": [{"target": "T1, cynomolgus CD3e (cynomolgus, UniProt Q95LI5 22-117)", "T1 chain": "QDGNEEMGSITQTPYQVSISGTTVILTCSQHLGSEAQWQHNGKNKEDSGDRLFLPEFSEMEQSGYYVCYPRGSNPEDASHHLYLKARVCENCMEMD", "assay": "SPR", "units": {"Kd": "nM"}, "values": [{"binder": "B1", "Kd": 18.3}, {"binder": "B2", "Kd": 9.98}, {"binder": "B3", "Kd": 14.1}, {"binder": "B4", "Kd": 14.1}]}, {"target": "T2, Human CD3e (Acro Biosystems CDE-H5223) (human, UniProt P07766 23-126)", "T2 chain": "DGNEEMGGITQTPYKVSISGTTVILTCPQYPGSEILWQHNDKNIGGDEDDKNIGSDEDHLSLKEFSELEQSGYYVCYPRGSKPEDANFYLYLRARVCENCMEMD", "assay": "SPR", "units": {"Kd": "nM"}, "values": [{"binder": "B2", "Kd": 6.34}, {"binder": "B3", "Kd": 6.47}, {"binder": "B4", "Kd": 4.72}]}, {"target": "T3, Human CD3e (Acro Biosystems CDE-H5223) (human, UniProt P07766 23-126)", "T3 construct": "Analyte in SPR; also called huCD3e", "assay": "SPR (Biacore T200), antibody captured via anti-human Fc, CD3e as analyte, 1:1 model", "protocol": "(§1) In this example, exemplary humanized anti-CD3 antibody molecules BKM0020, BKM0025, BKM0028, BKM0038 (as described herein) were tested for their binding affinity to human or cynomolgus CD3e using surface plasmon resonance (SPR). SPR measurements were performed by using the BIAcore T200. Each construct was immobilized on a CM5 chip via Anti-human Fc antibody to a response of 200 RU. Human CD3e (Acro Biosystems CDE-H5223) was diluted to 500 nM and then diluted two-fold. Each analyte concentration was injected at a flow rate of 20 μl/min over the surface on which each antibody was immobilized. The data was fit using a 1:1 binding model. Affinity to human CD3e was preserved compared to the parental and affinity to cyno CD3e was two to three-fold lower compared to the parental antibody.", "values": [{"binder": "B1", "binding result": "binds"}, {"binder": "B2", "binding result": "binds"}, {"binder": "B3", "binding result": "binds"}, {"binder": "B4", "binding result": "binds"}]}, {"target": "T4, cynomolgus CD3e (cynomolgus, UniProt Q95LI5 22-117, limits assumed)", "T4 construct": "also called cCD3e; cyno CD3e", "T4 sequence (looked up)": "T1 chain", "assay": "SPR (Biacore T200), antibody captured via anti-human Fc, CD3e as analyte, 1:1 model", "protocol": "as §1", "values": [{"binder": "B1", "binding result": "binds"}, {"binder": "B2", "binding result": "binds"}, {"binder": "B3", "binding result": "binds"}, {"binder": "B4", "binding result": "binds"}]}, {"target": "T5, human CD3e on Jurkat cells (human, UniProt P07766 23-207)", "T5 construct": "whole, on cells; also called huCD3e; CD3 expressed on Jurkat cells", "assay": "flow cytometry (FACS) on Jurkat cells, 3-fold dilutions from 10 ug/ml, anti-human IgG AF647", "protocol": "Binding of the exemplary humanized anti-CD3 antibodies to CD3-expressing Jurkat cells was performed using FACS. Antibodies were tested in a series of 3-fold dilutions starting with 10 ug/ml concentration and detected using anti-human IgG secondary antibodies conjugated to AF647.", "values": [{"binder": "B2", "binding result": "binds"}]}]}
